B1: FIXa aptamer rank 3 (SEQ 122/152) (ssRNA)
RNA: ACGACGCUCUUCCGAUCUAUGGUCAUACGCGCAGGCUGGAGGUAUUACCCCCCGGGCAAGCUAACGGAGCUCGUAUGC
B2: FIXa aptamer rank 1 (SEQ 133/150) (ssRNA)
RNA: ACGACGCUCUUCCGAUCUAUGGUUCCAGUCGGUGAACUUCCUGAGUCCGGUGUGUGCAAGCUAACGGAGCUCGUAUGC
B3: FIXa aptamer rank 2 (SEQ 114/151) (ssRNA)
RNA: ACGACGCUCUUCCGAUCUAUGGAGGGCAGCCCGGUAGUCGCCCACGGGGAACGCGUCAAGCUAACGGAGCUCGUAUGC

biological target: Coagulation factor IXa (FIXa) (Homo sapiens, UniProt P00740;P00740 P00740:47-191,P00740:227-461); assay: EMSA; estimated by mobility shift compared to a known FIXa aptamer; native PAGE 4 C; T7 transcript starts with GG before F5; conditions: tags: Haematologic Technologies; immobilized on con-A beads for partitioning; putative G/U quadruplex
Sequence (P00740 47-191, chain 1 of 2): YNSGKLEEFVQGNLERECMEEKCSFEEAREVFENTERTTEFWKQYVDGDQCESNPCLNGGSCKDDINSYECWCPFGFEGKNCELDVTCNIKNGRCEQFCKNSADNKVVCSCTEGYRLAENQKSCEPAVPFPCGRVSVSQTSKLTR
Sequence (P00740 227-461, chain 2 of 2): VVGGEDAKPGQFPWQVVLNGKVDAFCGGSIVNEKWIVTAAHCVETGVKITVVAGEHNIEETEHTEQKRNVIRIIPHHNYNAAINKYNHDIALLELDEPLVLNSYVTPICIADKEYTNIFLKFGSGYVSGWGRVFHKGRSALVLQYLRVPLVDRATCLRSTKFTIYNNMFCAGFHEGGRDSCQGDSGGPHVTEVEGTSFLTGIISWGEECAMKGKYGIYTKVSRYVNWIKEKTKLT

**Q.** Which Kd does the source give for B1 here?
**A.** ~700 nM

**Q.** How did the Kd turn out when B2 was run?
**A.** ~220 nM

**Q.** How did the Kd turn out when B3 was run?
**A.** ~220 nM
